Residue numbers refer to the chain shown, from its start. Each block holds one binder with its values, some of them ahead of it.
How the values were obtained:
[1] = biological target: T1, human β-amyloid (1-40) peptide (human, UniProt P05067 672-711); assay: competition ELISA, antibody pre-incubated with biotinylated β-amyloid 1-40; competitor immobilised mouse 6F6; Exp 1
T1 construct: domain: β-amyloid (1-40); Used free in solution, coated on plates, or N- or C-terminally biotinylated, as told under assay; also called Aβ peptide (1-40); Aβ1-40
Description: (§1) 6F6c and humanised antibodies H11L2, H11L9, H11L10, H11L12 and H11L13 were assessed for their ability to bind Aβ1-40 peptide in solution and inhibit the interaction of human Aβ1-40 peptide with mouse 6F6 monoclonal antibody in a competition ELISA. A constant concentration of biotinylated β-amyloid 1-40 was pre-incubated with serial diluted amounts of humanised 6F6 antibody variants. The mixture including complexed and free amyloid was then added to wells containing immobilised mouse 6F6 monoclonal antibody and incubated for 15 minutes at room temperature. Plates were washed and the amount of free β-amyloid that was still available for binding the immobilised parental 6F6 monoclonal antibody was then detected using streptavidin-HRP conjugate.
(§2) All humanised variants were able to effectively compete for binding to 6F6 parental monoclonal antibody with very similar IC50 values.

[2] = biological target: T1, human β-amyloid (1-40) peptide; assay: competition ELISA, antibody pre-incubated with biotinylated β-amyloid 1-40; competitor immobilised mouse 6F6; Exp 2
Description: as §1, §2

[3] = biological target: T1, human β-amyloid (1-40) peptide; assay: SPR (Biacore T100), antibody captured on protein A, human β-amyloid 1-40 at 256-2 nM, 25°C, mean of three experiments
Description: The affinity of selected heavy and light chain combinations was determined using a Biacore T100 instrument. Three independent experiments were performed using humanised antibody immobilised via protein A surface Biacore chips and injection of β-amyloid 1-40 peptides. The chimeric molecule of 6F6 served as a reference molecule. For this Protein A was immobilised on a CM5 chip by primary amine coupling in accordance with manufactures recommendations. Anti-β-amyloid antibodies were captured on this surface and after a period of stabilisation human β-amyloid 1-40 was passed over at concentrations 256-2 nM in halving dilutions. A buffer injection over the captured antibody surface was used to double reference the data set in accordance with Biacore best practice. […] The work was carried out in HBS-EP at 25° C. Results are summarised in Table 13 as the mean of all three experiments.

[4] = biological target: T1, human β-amyloid (1-40) peptide; assay: ELISA on human Aβ peptide (1-40)
[5] = biological target: T1, human β-amyloid (1-40) peptide; assay: ELISA on human Aβ peptide (1-40), in combination with H11
[6] = biological target: T1, human β-amyloid (1-40) peptide; assay: SPR (Biacore T100), antibody captured on anti-human IgG, beta amyloid (1-40), 37°C
Description: Anti-human IgG (Biacore BR-1008-39) was coupled to a CM5 biosensor chip by primary amine coupling. The anti-beta amyloid antibodies were captured on this surface. Beta amyloid (1-40) was then passed over at 256, 64, 16, 4 and 1 nM, with a 0 nM (ie buffer alone passed over the captured antibody surface) used for double referencing. […] The data was analysed using the 1:1 model inherent to the T100. The run was carried out at 25° C. and 37° C. using HBS-EP as the running buffer.
From this panel some constructs were also assessed for binding kinetics at physiological temperature.

T1 sequence (P05067 672-711 limits assumed): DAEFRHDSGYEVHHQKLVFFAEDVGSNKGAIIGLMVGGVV

B1: humanised antibody H11L2 (antibody, human IgG1, kappa, name in Kabat numbering)
heavy: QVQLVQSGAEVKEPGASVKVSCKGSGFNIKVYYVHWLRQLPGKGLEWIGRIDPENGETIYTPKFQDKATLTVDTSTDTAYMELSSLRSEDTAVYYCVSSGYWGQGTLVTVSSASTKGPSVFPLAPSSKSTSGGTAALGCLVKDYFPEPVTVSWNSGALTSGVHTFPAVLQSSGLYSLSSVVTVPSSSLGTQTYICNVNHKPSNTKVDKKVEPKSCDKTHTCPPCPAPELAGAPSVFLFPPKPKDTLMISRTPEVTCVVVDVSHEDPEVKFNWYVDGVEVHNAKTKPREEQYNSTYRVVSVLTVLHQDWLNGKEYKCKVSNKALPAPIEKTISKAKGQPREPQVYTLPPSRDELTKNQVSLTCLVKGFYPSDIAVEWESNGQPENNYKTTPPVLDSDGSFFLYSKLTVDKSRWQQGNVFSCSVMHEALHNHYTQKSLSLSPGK
light: DIVMTQSPLSLPVTPGEPASISCRSSKSLLHRNGITYLYWYLQKPGQSPQLLIYQMSNLASGVPDRFSSSGSGTDFTLKISRVEAEDVGVYYCAQNLELWTFGQGTKVEIKRTVAAPSVFIFPPSDEQLKSGTASVVCLLNNFYPREAKVQWKVDNALQSGNSQESVTEQDSKDSTYSLSSTLTLSKADYEKHKVYACEVTHQGLSSPVTKSFNRGEC
notes: Human IgG1 Fc mutated, human kappa
IC50 [1]: 0.862 µg/mL | IC50 [2]: 0.578 µg/mL | Kd [3]: 9.57 nM

B2: humanised VH variant H24 in combination with L2 light chain (antibody, human IgG1, kappa, name in Kabat numbering, V domains shown)
VH: QVQLVQSGAEVKKPGASVKVSCKGSGFNIKVYYVHWLRQAPGKGLEWMGRIDPENGETIYTPKFQDRVTMTEDTSSNTAYMELSSLRSEDTAVYYCVSSGYWGQGTLVTVSS
VL: DIVMTQSPLSLPVTPGEPASISCRSSKSLLHRNGITYLYWYLQKPGQSPQLLIYQMSNLASGVPDRFSSSGSGTDFTLKISRVEAEDVGVYYCAQNLELWTFGQGTKVEIKR
notes: Kabat numbering
binding result [4]: binds

B3: humanised VL variant L4 in combination with H11 (antibody, human IgG1, kappa, name in Kabat numbering, V domains shown)
VH: B2 VH with K13E, A40L, M48I, R67K, V68A, M70L, E72V, S76T, N77D
VL: B2 VL with S68T, S69G
notes: Kabat numbering
binding result [5]: binds

B4: humanised VH variant H26 in combination with L2 light chain (antibody, human IgG1, kappa, name in Kabat numbering, V domains shown)
VH: B2 VH with M48I, M70L, N77D
VL: B2 VL
notes: Kabat numbering
binding result [4]: binds

B6: humanised VH variant H25 in combination with L2 light chain (antibody, human IgG1, kappa, name in Kabat numbering, V domains shown)
VH: B2 VH with M48I, M70L, S76T, N77D
VL: B2 VL
notes: Kabat numbering
binding result [4]: binds

B7: humanised VH variant H21 in combination with L2 light chain (antibody, human IgG1, kappa, name in Kabat numbering, V domains shown)
VH: B2 VH with A40L, S76T, N77D
VL: B2 VL
binding result [4]: binds

B8: humanised VL variant L6 in combination with H11 (antibody, human IgG1, kappa, name in Kabat numbering)
heavy: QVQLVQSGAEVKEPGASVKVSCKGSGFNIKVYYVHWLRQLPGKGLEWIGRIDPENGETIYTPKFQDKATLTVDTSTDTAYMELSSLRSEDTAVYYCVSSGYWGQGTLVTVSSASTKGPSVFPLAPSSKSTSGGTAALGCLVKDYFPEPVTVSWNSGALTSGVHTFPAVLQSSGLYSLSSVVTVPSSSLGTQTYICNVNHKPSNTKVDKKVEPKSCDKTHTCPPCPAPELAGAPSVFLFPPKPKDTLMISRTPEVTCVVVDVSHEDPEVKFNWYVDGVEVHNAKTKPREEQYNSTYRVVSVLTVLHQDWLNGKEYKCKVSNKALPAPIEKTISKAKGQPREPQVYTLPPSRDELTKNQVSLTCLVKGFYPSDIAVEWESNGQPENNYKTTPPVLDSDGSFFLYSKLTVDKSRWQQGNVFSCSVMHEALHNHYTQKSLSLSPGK
light: B1 light with S48P, S68T, S69G, Q104G, V108L
notes: Kabat numbering
binding result [5]: binds

B9: humanised VL variant L8 in combination with H11 (antibody, human IgG1, kappa, name in Kabat numbering)
heavy: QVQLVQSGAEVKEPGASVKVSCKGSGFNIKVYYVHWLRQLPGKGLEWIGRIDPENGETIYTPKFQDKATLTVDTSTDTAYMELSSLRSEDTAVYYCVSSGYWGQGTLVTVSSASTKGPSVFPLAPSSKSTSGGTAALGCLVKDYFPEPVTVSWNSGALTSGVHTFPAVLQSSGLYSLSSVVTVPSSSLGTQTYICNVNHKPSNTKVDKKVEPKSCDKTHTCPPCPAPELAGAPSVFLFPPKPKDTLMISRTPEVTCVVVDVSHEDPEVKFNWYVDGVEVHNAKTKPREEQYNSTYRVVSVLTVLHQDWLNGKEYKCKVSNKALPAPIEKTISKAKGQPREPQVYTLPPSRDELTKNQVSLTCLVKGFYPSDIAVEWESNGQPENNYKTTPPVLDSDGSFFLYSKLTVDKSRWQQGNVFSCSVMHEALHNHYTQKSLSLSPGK
light: B1 light with S48P, S68T, S69G
notes: Kabat numbering
binding result [5]: binds

B10: humanised VH variant H23 in combination with L2 light chain (antibody, human IgG1, kappa, name in Kabat numbering, V domains shown)
VH: B2 VH with M48I, S76T, N77D
VL: B2 VL
notes: Kabat numbering
binding result [4]: binds

B11: humanised VH variant H29 in combination with L2 light chain (antibody, human IgG1, kappa, name in Kabat numbering)
heavy: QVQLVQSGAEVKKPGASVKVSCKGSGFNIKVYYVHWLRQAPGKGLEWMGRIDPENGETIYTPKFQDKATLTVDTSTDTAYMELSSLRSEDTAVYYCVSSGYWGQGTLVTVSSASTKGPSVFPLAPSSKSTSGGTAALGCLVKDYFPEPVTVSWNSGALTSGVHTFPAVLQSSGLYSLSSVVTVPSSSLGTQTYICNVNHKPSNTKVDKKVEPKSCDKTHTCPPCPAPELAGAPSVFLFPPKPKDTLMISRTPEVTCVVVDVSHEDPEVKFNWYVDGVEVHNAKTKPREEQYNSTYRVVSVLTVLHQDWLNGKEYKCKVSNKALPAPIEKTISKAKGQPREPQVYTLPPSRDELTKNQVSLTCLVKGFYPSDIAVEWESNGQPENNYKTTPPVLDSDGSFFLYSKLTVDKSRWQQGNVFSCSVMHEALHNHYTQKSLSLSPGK
light: B1 light
notes: Kabat numbering
binding result [4]: binds

B12: humanised VL variant L7 in combination with H11 (antibody, human IgG1, kappa, name in Kabat numbering, V domains shown)
VH: B2 VH with K13E, A40L, M48I, R67K, V68A, M70L, E72V, S76T, N77D
VL: B2 VL with S48P
notes: Kabat numbering
binding result [5]: binds

B13: humanised VH variant H27 in combination with L2 light chain (antibody, human IgG1, kappa, name in Kabat numbering, V domains shown)
VH: B2 VH with K13E, R67K, V68A, E72V, S76T, N77D
VL: B2 VL
notes: Kabat numbering
binding result [4]: binds

Next, values leading:

IC50 [1]: 0.561 µg/mL | IC50 [2]: 0.549 µg/mL | Kd [3]: 6.95 nM
B5: humanised antibody H11L12 (antibody, human IgG1, kappa, name in Kabat numbering)
heavy: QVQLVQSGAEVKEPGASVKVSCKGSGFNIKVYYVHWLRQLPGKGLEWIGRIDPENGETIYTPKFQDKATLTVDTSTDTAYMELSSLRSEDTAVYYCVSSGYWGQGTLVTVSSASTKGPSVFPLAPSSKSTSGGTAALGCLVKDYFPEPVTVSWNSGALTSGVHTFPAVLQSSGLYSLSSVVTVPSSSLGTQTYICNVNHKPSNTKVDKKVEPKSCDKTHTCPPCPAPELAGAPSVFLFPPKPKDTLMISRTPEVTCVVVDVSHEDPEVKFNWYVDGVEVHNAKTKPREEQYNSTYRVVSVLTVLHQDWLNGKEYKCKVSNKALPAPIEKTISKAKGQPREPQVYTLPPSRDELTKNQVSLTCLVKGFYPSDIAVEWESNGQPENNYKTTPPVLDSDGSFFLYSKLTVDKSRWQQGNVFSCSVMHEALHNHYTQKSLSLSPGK
light: B1 light with L11N, S48P, S69G

IC50 [1]: 0.622 µg/mL | Kd [3]: 5.57 nM
B14: humanised antibody H11L10 (antibody, human IgG1, kappa, name in Kabat numbering)
heavy: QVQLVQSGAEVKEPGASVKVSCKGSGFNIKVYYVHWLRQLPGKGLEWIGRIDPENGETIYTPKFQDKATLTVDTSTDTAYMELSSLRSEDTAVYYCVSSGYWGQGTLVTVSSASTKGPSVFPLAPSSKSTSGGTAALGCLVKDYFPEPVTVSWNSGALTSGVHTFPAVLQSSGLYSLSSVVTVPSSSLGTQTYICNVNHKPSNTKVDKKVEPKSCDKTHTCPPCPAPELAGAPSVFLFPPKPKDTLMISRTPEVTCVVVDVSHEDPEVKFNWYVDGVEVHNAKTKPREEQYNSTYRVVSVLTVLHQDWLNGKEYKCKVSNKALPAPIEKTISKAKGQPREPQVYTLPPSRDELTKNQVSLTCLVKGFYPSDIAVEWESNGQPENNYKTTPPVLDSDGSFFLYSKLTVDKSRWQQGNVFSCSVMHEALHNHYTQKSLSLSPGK
light: B1 light with P8A

binding result [4]: binds
B15: humanised VH variant H28 in combination with L2 light chain (antibody, human IgG1, kappa, name in Kabat numbering)
heavy: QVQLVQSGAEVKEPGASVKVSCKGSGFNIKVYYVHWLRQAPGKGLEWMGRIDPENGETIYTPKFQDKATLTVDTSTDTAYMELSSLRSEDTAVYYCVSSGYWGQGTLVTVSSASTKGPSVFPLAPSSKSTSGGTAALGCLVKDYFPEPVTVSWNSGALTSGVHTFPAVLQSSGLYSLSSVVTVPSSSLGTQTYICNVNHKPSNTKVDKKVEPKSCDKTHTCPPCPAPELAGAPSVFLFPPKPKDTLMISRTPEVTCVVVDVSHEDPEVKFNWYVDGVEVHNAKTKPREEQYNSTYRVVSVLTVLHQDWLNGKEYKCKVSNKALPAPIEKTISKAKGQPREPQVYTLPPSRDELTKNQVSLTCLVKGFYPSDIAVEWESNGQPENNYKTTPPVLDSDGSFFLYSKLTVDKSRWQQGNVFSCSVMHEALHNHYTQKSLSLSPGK
light: B1 light
notes: Kabat numbering

IC50 [1]: 0.616 µg/mL | IC50 [2]: 0.531 µg/mL | Kd [3]: 7.41 nM
B16: humanised antibody H11L13 (antibody, human IgG1, kappa, name in Kabat numbering)
heavy: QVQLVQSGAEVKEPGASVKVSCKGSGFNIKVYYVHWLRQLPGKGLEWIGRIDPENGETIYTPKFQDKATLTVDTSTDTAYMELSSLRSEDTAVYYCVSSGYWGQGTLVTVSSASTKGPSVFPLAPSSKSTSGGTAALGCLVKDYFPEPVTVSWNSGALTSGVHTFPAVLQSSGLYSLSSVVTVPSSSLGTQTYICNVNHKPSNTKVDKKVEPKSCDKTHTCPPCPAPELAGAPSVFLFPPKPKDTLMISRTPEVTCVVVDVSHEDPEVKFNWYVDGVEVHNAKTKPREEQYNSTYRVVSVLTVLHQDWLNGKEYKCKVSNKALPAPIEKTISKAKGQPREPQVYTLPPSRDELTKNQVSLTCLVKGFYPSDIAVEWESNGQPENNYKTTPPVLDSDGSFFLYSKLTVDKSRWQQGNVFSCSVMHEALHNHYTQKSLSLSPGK
light: B1 light with P8A, S48P, S69G

Kd [6]: 4.72 nM
B17: humanised de-immunised construct H48L17 (antibody, name in Kabat numbering, V domains shown)
VH: QVQLVQSGAEVKEPGASVKVSCKGSGFNIHVYYVHWLRQLPEKGLEWIGRIDPENGETIYTPKFQDKATLTVDTSTDTAYMELSSLRSEDTAVYYCVSSGYWGQGTLVTVSS
VL: DIVMTQSPLSNPVTPGEPASISCRSSKSLLHRNGITYLYWYLQKPGQSPQLLIYQMSHLASGVPDRFSSSGSGTDFTLKISRVEAEDVGVYYCAQNLELWTFGQGTKVEIK

Kd [6]: 4.21 nM
B18: humanised de-immunised construct H49L17 (antibody, name in Kabat numbering, V domains shown)
VH: B17 VH with H30K, V31T
VL: B17 VL

Source: US20110014182A1 (published 2011)
